Assay results reported in patent US20100221240A1, “Chemically Modified Peptide Analogs” (FRAUNHOFER-GESELLSCHAFT ZUR FORDERUNG DER ANGEWANDTEN …, priority 2004, published 2010).

Assays:
[1] = Nyholm B. et al. 2001; cited from earlier work
[2] = ThT binding assay of the fibrile formation potential of the peptides alone; type: physicochemical; settings: 2% HFIP, 10 mM tris, pH 7.4
Protocol: b) Amyloid fibriles from various protein species bind to the dye ThT and result in an increase in the maximum fluorescence emission of the […]. The ThT binding is therefore a specific test widely used for quantifying amyloid fibriles. This test was used to determine the amyloid formation potential of the analogs compared to IAPP. For this test the analogs and IAPP were incubated at a concentration of 62.5 μm [sic; μM] (2% HFIP, 10 mM tris, pH 7.4). […] aliquots from these incubations were combined with […] of a 5 μM ThT solution (in 0.1 M glycine-NaOH buffer, pH 8.5), mixed, and after excitation at 450 nm the emission from the solution was determined at 485 nm. It was shown that IAPP forms fibriles at a concentration of 625 nM.

[3] = EM analysis of peptide solutions for fibriles; type: physicochemical; settings: 5 μM, 10 mM sodium phosphate buffer pH 7.4, 1% HFIP, approximately 20 h at RT
Protocol: c) For EM analyses, 5-μM solutions of the analogs versus IAPP (in 10 mM sodium phosphate buffer, pH 7.4, containing 1% HFIP) were incubated for approximately 20 h at RT. 10 μL of the solutions was then applied to EM plates, and after dyeing with 1% uranyl acetate as described in Kayed, J. Mol. Biol. (1999) 287, 781-796 was analyzed for the presence of fibriles by means of EM.

[4] = target: T1, IAPP receptor on MCF-7 cells (Homo sapiens, UniProt P30988); test: Stability in solution: preservation of AC activation potential (hormonal activity) on storage; type: cell-based; settings: 250 μM or 1 mg/mL, sodium phosphate pH 7.4, RT, 4 days; 1 μM end concentration on cells
T1 construct: Specific IAPP receptors are expressed in the MCF-7 cell line; endogenous in cells; host or cells: MCF-7 (human breast cancer cells)
T1 sequence (P30988 25-474): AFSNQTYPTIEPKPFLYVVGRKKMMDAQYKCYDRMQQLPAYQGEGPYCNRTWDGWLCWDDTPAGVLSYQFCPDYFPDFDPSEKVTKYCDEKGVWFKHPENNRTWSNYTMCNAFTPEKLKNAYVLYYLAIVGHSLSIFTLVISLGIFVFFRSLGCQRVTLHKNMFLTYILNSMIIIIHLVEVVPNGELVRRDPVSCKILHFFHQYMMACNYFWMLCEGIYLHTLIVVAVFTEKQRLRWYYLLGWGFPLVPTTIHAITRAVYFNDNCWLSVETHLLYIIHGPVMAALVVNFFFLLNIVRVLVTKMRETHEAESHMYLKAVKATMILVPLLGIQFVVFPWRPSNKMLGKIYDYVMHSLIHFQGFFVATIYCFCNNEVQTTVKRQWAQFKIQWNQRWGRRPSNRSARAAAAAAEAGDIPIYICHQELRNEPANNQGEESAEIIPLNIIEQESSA
Protocol: To [determine] the potential applicability of the analogs as an IAPP or pramlintide replacement in the treatment of diabetes and/or other diseases, the stability of the solutions of the analogs and thus their hormonal activity in comparison to readily aggregating IAPP was investigated. In one typical assay, aqueous solutions of IAPP, IAPP-AL, IAPP-GI, or 1:1 mixtures of the analogs with IAPP (250 μM or 1 mg/mL) in […] sodium phosphate, pH 7.4, were used at RT and incubated for 4 days. The AC activation potential of these solutions was determined at various times, e.g., at times 0, 48 h, and 96 h, by means of the AC activation assay described above (end concentration in the cells was 1 μM, corresponding to maximum activation) (FIG. 9).

IAPP = target: T2, IAPP (Homo sapiens, UniProt P10997); test: EM-tracked aggregation test of IAPP in 1:1 mixture with analogs; type: biochemical; settings: IAPP 5 μM alone or 1:1 with analog, 10 mM sodium phosphate pH 7.4, 1% HFIP, 20 h
T2 construct: Natural human IAPP
T2 sequence (P10997 34-70 limits assumed): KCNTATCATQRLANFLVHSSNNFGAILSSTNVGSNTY
Protocol: In one typical aggregation test tracked by EM, IAPP (5 μM) was incubated alone or in the presence of one of the analogs, in a 1:1 ratio (in 10 mM sodium phosphate buffer, pH 7.4, containing 1% HFIP). After 20 h, 10 μL of the solution was applied to an EM plate, and after dyeing with 1% uranyl acetate as described in Kayed, J. Mol. Biol. (1999) 287, 781-796 was analyzed for the presence of fibriles by means of EM.

[5] = Sedimentation test (solubility; BCA protein determination of pellet and supernatant); type: physicochemical; settings: pH 7.4
Protocol: a) The sedimentation test was used to investigate the solubility of the analogs compared to IAPP. The quantity of precipitated or soluble peptide was determined as a function of time. In one typical experiment, first a peptide solution at a given concentration (1, 10, or 100 μM) in 10 mM sodium phosphate buffer, pH 7.4 was prepared. Aliquots of this solution were centrifuged at specified times (20200 g, 20 min), and precipitated protein in the pellet and supernatant was quantified using the bicinchonic acid (BCA) protein determination assay. FIG. 1 illustrates several results from this test. […] After 20 h IAPP was completely precipitated; in contrast, the N-methylated IAPP-LA [sic; IAPP-AL], IAPP-GI, and IAPP-AF [sic; IAPP-FA] analogs remained soluble over 14 days, even at a concentration of 100 μM. IAPP completely precipitated after only 2 h under the latter-referenced conditions (100 μM).

[6] = 10 μM in 10 mM sodium phosphate buffer

| Compound | pH values at which the peptide tends to aggregate [1] | concentration at which fibriles form [2] [nM] | presence of fibriles by EM [3] | hormonal activity (AC activation potential) after storage in solution [4] | fibrile formation by EM (IAPP) | onset of aggregation [5, 6] | time after which peptide was completely precipitated [5, 6] [h] | time after which peptide was completely precipitated ([5]; 100 μM in 10 mM sodium phosphate buffer) [h] |
| --- | --- | --- | --- | --- | --- | --- | --- | --- |
| CC[C@H](C)[C@H](NC(=O)[C@@H]1CCCN1C(=O)CNC(=O)[C@H](Cc1ccccc1)NC(=O)[C@H](CC(N)=O)NC(=O)[C@H](CC(N)=O)NC(=O)[C@H](CO)NC(=O)[C@H](CO)NC(=O)[C@H](Cc1c[nH]cn1)NC(=O)[C@@H](NC(=O)[C@H](CC(C)C)NC(=O)[C@H](Cc1ccccc1)NC(=O)[C@H](CC(N)=O)NC(=O)[C@H](C)NC(=O)[C@H](CC(C)C)NC(=O)[C@H](CCCNC(=N)N)NC(=O)[C@H](CCC(N)=O)NC(=O)[C@@H](NC(=O)[C@H](C)NC(=O)[C@@H]1CSSC[C@H](NC(=O)[C@@H](N)CCCCN)C(=O)N[C@@H](CC(N)=O)C(=O)N[C@@H]([C@@H](C)O)C(=O)N[C@@H](C)C(=O)N[C@@H]([C@@H](C)O)C(=O)N1)[C@@H](C)O)C(C)C)C(=O)N[C@@H](CC(C)C)C(=O)N1CCC[C@H]1C(=O)N1CCC[C@H]1C(=O)N[C@H](C(=O)N[C@@H](CC(N)=O)C(=O)N[C@H](C(=O)NCC(=O)N[C@@H](CO)C(=O)N[C@@H](CC(N)=O)C(=O)N[C@H](C(=O)N[C@@H](Cc1ccc(O)cc1)C(N)=O)[C@@H](C)O)C(C)C)[C@@H](C)O [pramlintide] | above 5 | – | – | – | – | – | – | – |
| Natural human IAPP (KCNTATCATQRLANFLVHSSNNFGAILSSTNVGSNTY; listed as Homo sapiens) [peptide hormone of 37 amino acids] | – | 625 | composed primarily of IAPP amyloid fibriles | may lose more than half of its original hormonal activity | composed primarily of IAPP amyloid fibriles | began immediately after the solution was prepared | 20 | 2 |
